Data published in patent publication US20210380678A1 (SURROZEN OPERATING, published 2021).
Each block holds one binder with its values, some of them ahead of it.

Legend:
[1] = target: T1, human ASGR1 extracellular domain (hASGR1 ECD) (human, UniProt P07306 62-291, biotinylated (His-Avi tag)); assay: BLI, Fab on hASGR1
T1 construct: His-Avi tag at the N-terminus, biotinylated for BLI; also called human ASGR1 ECD
T1 sequence: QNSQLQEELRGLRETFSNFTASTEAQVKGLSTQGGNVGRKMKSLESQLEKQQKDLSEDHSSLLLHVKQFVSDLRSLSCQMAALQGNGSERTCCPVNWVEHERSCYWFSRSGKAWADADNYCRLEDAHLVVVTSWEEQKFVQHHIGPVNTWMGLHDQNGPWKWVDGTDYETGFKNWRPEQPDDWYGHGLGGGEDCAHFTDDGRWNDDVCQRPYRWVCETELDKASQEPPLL

[2] = target: T1, human ASGR1 extracellular domain …; assay: BLI (Octet), Fab on biotinylated ASGR1 ECD, curve model fitting; Kd only in FIG. 9A
Method: (§1) Affinity measurement: Binding kinetics of the RSPO-derived proteins to LGRS, RNF43, or ZNRF3, and binding of the anti-ASGR Fabs to human and/or mouse ASGR1 were determined by bio-layer interferometry (BLI) using Octet Red 96 (PALL ForteBio, Fremont, CA) instruments at 30° C., 1000 rpm with either streptavidin (SA) or anti-hIgG Fc capture (AHC) biosensors. […] Following capture of ECDs of RNF43, ZNRF3 or LGRS, the biosensors were dipped into wells containing the relevant test molecules at 7 different concentrations in running buffer plus a well with only running buffer as a reference channel. KD was determined by steady-state analysis based on the average responses between 140 to 145 seconds of association phase, for binding to LGRS, RNF43, and ZNRF3. For the binding to ASGR, KD was determined by curve model fitting using the Octet® Red data analysis software (Fortebio)

[3] = target: T2, mouse ASGR1 extracellular domain (mASGR1 ECD) (mouse, biotinylated (His-Avi tag)); assay: as above
T2 construct: His-Avi tag at the C-terminus, biotinylated; also called murine ASGR1; mouse ASGR1 (Q61-N284)
T2 chain: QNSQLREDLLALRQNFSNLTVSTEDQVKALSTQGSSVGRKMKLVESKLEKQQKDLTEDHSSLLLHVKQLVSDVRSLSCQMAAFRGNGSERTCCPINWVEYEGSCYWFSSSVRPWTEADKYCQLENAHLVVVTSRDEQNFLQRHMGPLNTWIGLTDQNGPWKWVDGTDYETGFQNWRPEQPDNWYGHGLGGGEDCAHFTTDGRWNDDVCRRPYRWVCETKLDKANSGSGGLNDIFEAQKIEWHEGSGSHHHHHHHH
Method: as §1

[4] = target: T3, human ASGR2 extracellular domain (hASGR2 ECD) (human, UniProt P07307 86-311, biotinylated (His/Avi tag)); assay: BLI, Fab on hASGR2
T3 construct: Cloned with a His/Avi tag
T3 sequence: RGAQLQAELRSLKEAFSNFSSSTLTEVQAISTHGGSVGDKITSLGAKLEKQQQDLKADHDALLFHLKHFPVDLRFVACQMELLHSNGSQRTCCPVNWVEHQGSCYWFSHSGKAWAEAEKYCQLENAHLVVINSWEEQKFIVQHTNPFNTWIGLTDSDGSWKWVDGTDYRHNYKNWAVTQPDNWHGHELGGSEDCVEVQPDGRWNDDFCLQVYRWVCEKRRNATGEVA

binding result [1]: binds
B1: LP1-8M24 Fab (Fab, V domains shown)
VH: QVQLQQSGAELARPGASVKLSCKASGYTFTNYGINWVKQRTGQGLEWIGEIFPRSDNTFYNEKFKGKATLTADKSSTTAYMELRSLTSEDSAVYFCARKGRDYGTSHYFDYWGQGTTLTVSS
VL: DIQMTQSPASLSVSVGETVTITCRISENIYSNLAWYQQKQGKSPHLLVYAAINLADGVPSRFSGSGSGTQFSLKINSLQSEDFGSYYCQHFWGTPFTFGSGTKLEIK
notes: Tested as Fab, from hybridoma development

binding result [2]: binds
binding result [3]: binds
B2: anti-ASGR1 Fab (Fab, V domains shown)
VH: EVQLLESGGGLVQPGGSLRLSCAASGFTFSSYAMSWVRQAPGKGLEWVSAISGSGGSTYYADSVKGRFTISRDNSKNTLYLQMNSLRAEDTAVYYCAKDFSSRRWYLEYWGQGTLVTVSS
VL: DIELTQDPAVSVALGQTVRITCQGDSLRSYYASWYQQKPGQAPVLVIYGKNNRPSGIPDRFSGSSSGNTASLTITGAQAEDEADYYCNSLERIGYLSYVFGGGTKLTVLG
notes: Made with a (His)6 tag at the C-terminus of the human IgG1 CH1 domain after a 5-mer linker (GSGSG); also called αASGR1 antibody (e.g., RO-01) expressed as a Fab

binding result [1]: binds
B3: LP1-2I13 Fab (Fab, V domains shown)
VH: EVQLVESGGGLVKPGGSRKLSCAASGFTFSDYGMHWVRQAPEKGLEWVAYISSGSSTIYYADTVKGRFTISRDNAKNTLFLQMTSLRSEDTAMYYCSRKGGFGDYEKSYAMDYWGQGTSVTVSS
VL: DIQMTQSPASLSASVGETVTITCRASENIYSYLVWYQQKQGKSPQLLVYNAKTLAEGVPSRFSGSGSGTQFSLKINSLQPEDFGSYYCQHHYGTWTFGGGIKLEIK
notes: as for B1

binding result [4]: binds
B4: Abv-10B8 Fab (Fab, V domains shown)
VH: DVKLVESGEGLVKPGGSLKLSCAASGFTFSSYAMSWVRQTPEKRLEWVAYISSGGDYIYYVDTVKGRFTISRDNARNTLYLQMSSLKSEDTAVYYCTREGTGGMDYWGQGTSVTVSS
VL: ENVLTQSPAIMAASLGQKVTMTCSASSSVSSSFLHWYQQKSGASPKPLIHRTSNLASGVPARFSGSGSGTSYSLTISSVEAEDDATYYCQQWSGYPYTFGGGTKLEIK
notes: as for B1

binding result [4]: binds
B5: Abv-3D11 Fab (Fab, V domains shown)
VH: EVQLVESGGGLVQPKGSLKLSCAASGFSFNTYAMNWVRQAPGKGLEWVARIRSKSNNYATYYADSVKDRFTISRDDSESMLYLQMNNLKTEDTAMYYCVRPRYDYWYFDVWGTGTTVTVSS
VL: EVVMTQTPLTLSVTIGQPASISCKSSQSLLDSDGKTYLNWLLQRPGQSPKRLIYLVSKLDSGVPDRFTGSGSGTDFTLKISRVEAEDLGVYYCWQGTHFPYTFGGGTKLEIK
notes: as for B1
